Assay results as given in patent publication US20110300147A9, “Inhibiting tumor cell invasion, metastasis and angiogenesis” (The Scripps Research institute, priority 2005, published 2011).
Read-outs that look alike come from different tables or passages of the source. Numbered stars: 1 amine (or outer) side, 2 acyl side, 3 side chain; on linkers, the order of the positions; unused ones are H or OH. Peptide text beside a SMILES is read from it. * marks the point of attachment. Doxorubicin(3'-N) = COc1cccc2c1C(=O)c1c(O)c3c(c(O)c1C2=O)C[C@@](O)(C(=O)CO)C[C@@H]3O[C@H]1C[C@H](N*)[C@H](O)[C@H](C)O1; Suc = O=C(CCC(=O)[*:2])[*:1]

Key:
control 293 cells [1] = test: WST-1 cytotoxicity assay, control 293 cells; conditions: Homo sapiens, HEK293, 48 h
Protocol: (§1) Cytotoxic assays. The WST-1 cell proliferation reagent (Roche Molecular Chemicals, Germany) was used to determine cell proliferation by quantification of cellular metabolic activity. Control 293 cells and legumain+ 293 cells were cultivated in microtiter plates (5×10^3 cells per well in 100 μl) and were incubated with serial concentrations of legubicin or doxorubicin for 48 h. Subsequently, 10 μl of WST-1 solution (1 mg/ml WST-1, 25 μM -methyldibenzopyrazine methyl sulfate) was added per well, and mixtures were incubated for an additional 4 h. The tetrazolium salt WST-1 (4-[3-(4-lodophenyl)-2-(4-nitrophenyl)-2H-5-tetrazolio-1,3-benzene disfonate) was cleaved by the mitochondrial succinate-tetrazolium-reductase system to formazan in cells which directly correlates to the number of metabolically viable cells in the culture. The amount of formazan salt was quantified in three replicates by absorbance at 450 nm using a micro-plate reader (Molecular Devices, Palo Alto, Calif.).
(§2) Cytotoxicity assays. The WST-1 cell proliferation reagent (Roche Molecular Chemicals, Germany) was used to determine cell proliferation by quantization of cellular metabolic activity. […] The amount of formazan salt was quantified in three replicates by absorbance at 450 nm using a micro-plate reader (Molecular Devices, Palo Alto, Calif.).

legumain+ 293 cells = test: WST-1 cytotoxicity assay, legumain+ 293 cells
Protocol: as §1, §2

HTP cells = test: WST-1 cytotoxicity assay, HTP cells; assay type: cell-based; conditions: 50% cell death, 48 h
Protocol: Cytotoxicity assays. The WST-1 cell proliferation reagent (Roche Molecular Chemicals, Germany) was used to determine cell proliferation by quantization of cellular metabolic activity. […] Subsequently, 10 μl of WST-1 solution (1 mg/ml WST-1, 25 μM -methyldibenzopyrazine methyl sulfate) was added per well, and mixtures were incubated for an additional 4 h. The tetrazolium salt WST-1 (4-[3-(4-Iodophenyl)-2-(4-nitrophenyl)-2H-5-tetrazolio-1,3-benzene disfonate) was cleaved by the mitochondrial succinate-tetrazolium-reductase system to formazan in cells in direct correlation with the number of metabolically viable cells in the culture. The amount of formazan salt was quantified in three replicates by absorbance at 450 nm using a micro-plate reader (Molecular Devices, Palo Alto, Calif.). All results were derived from replicate experiments with similar results.

[2] = tested on: CT26 murine colon carcinoma; test: CT26 syngeneic murine colon carcinoma model; assay type: in vivo, Balb/c mice
Source text: Animal models. […] Balb/C mice aged 4 to 6 weeks from the breeding colony were inoculated with 500,000 syngeneic CT26 tumor cells per site subcutaneously in the back. […] Treatment was repeated at 2 day intervals. The human 293 tumor models were generated in WEHI nude mice (The Scripps Research Institute breeding colony). […] Tumor growth and physical signs were monitored daily including any gross evidence of tumor necrosis, local tumor ulceration as well as evidence of toxicity including mobility, response to stimulus, eating, and weight of each animal. These procedures have been reviewed and approved by the Institutional Animal Care and Use Committee at The Scripps Research Institute. The work was conducted in The Scripps Research Institute facilities which are accredited by the Association for the Assessment and Accreditation of Laboratory Animal Care. The Scripps Research Institute maintains an assurance with the Public Health Service, is registered with the United States Department of Agriculture and is in compliance with all regulations relating to animal care and welfare.
Animal models. […] Treatment was three times per week for two weeks.

control 293 cells [3] = test: Dox and LEG-3 uptake assay, cells not expressing legumain
Protocol: Dox and LEG-3 uptake assay. Legumain^+ 293 cells or control 293 cells (2.5×10^5 cells/well) were seeded in six-well plates. The culture plates were then incubated for 24 h at 37° C. and 5% CO2, and the medium in each well was replaced with 2 ml of serum-free, antibiotic-free medium containing various concentrations of Dox or LEG-type prodrug compounds. The cells were incubated 1.5 h then washed three times with 2 ml of cold PBS. At this point, cell nuclear positivity for Dox could be analyzed by fluorescent microscopy. For quantitative assays the cells were then lysed by adding 0.5 ml of water and gently rotated on an orbital shaker for 5 min at room temperature. The lysed cells were added to 1.5 ml acidified ethanol, and incubated at 4° C. in the dark for 3 h. Total Dox and LEG content was measured fluorometrically using a Perkin-Elmer LS-50-B spectrofluorometer (excitation: 470 nm; emission: 590 nm). Fluorescence intensity was translated to drug concentration by use of a standard curve prepared from Dox and LEG solutions in cell lysates that were not previously exposed to the drug. Results are expressed as the mean±SD of at least three replicates for each experiment.

in vivo = test: in vivo; set-up: species or system Balb/c male mice; conditions: male, Balb/c, mouse
[4] = gross toxicity (weight loss, death) of treated mice; assay type: in vivo
Protocol: Tumor growth and signs of physical discomfort were monitored daily. Such signs included any gross evidence of tumor necrosis, local tumor ulceration as well as evidence of toxicity including changes in the animal's mobility, response to stimulus, piloerection, eating, and weight. These procedures have been reviewed and approved by the Institutional Animal Care and Use Committee at The Scripps Research Institute. All the experiments were conducted in The Scripps Research Institute facilities which are accredited by the Association for the Assessment and Accreditation of Laboratory Animal Care. The Scripps Research Institute maintains an assurance with the Public Health Service, and is registered with the United States Department of Agriculture and is in compliance with all regulations relating to animal care and welfare.

[5] = mouse, in vivo, iv
cardiac myocytes = conditions: for apoptosis of cardiac myocytes (TUNEL): treated mice
legumain = legumain (Homo sapiens, UniProt Q99538); test: cleavage of LEG compounds by legumain; assay type: biochemical
[6] = tested on: legumain expressing cells; test: Dox and LEG-3 uptake assay, legumain expressing cells; assay type: cell-based, human; conditions: legumain expressing cells in culture
Source text: Dox and LEG-3 uptake assay.

[7] = tissue distribution in mice bearing CT26 colon carcinomas; assay type: in vivo; conditions: twelve hours post injection
Protocol: Tissue distribution. LEG compounds or Dox was injected i.p. into mice, 12 h later the animals were perfused and the Dox autofluorescence was measured following homogenization in 50% ethanol and then diluted with an equal volume of 50% ethanol containing 0.6 M HCl. Fluorescence measurements were obtained with excitation at 470 nm and emission at 590 nm, concentrations were derived by conversion from a Dox standard curve. Tissues from saline injected mice provided controls. Blood samples were to 0.75 ml with PBS, centrifuged, the pellets washed with PBS and Dox extracted with ethanol, 0.3 M HCl.
Legumain is selectively functional in the tumor microenvironment.

[8] = tested on: peripheral blood leukocytes; test: marrow toxicity, peripheral blood leukocyte counts; assay type: in vivo, Balb C mice; conditions: six times in twelve days
Protocol: Determination of marrow toxicity. […] On day 7, retro-orbital sinus blood samples were collected into 10 mM EDTA, and counted by hemocytometer after lysis of red blood cells with an acidified methyl violet solution.

[9] = plasma pharmacokinetics in mice bearing CT26 tumors; conditions: single intravenous bolus, MTD of Dox and molar equivalent of LEG-3, CT26 tumor mice

Sequence of legumain (Q99538 18-323, species assumed): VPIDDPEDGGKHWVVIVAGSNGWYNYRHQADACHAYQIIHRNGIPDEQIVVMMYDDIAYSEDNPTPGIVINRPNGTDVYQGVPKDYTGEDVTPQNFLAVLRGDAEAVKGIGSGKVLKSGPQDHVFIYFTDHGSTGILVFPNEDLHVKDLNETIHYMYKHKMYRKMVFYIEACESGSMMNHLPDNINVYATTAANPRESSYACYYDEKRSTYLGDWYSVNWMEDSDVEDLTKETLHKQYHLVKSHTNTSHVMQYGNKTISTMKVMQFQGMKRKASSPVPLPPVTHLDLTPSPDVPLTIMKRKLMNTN

COc1cccc2c1C(=O)c1c(O)c3c(c(O)c1C2=O)C[C@@](O)(C(=O)CO)C[C@@H]3O[C@H]1C[C@H](N)[C@H](O)[C@H](C)O1 [Dox, doxorubicin, reference compound]
EC50 (control 293 cells [1]): 1.2 µM
cytotoxic effect on legumain+ 293 cells (legumain+ 293 cells): only slightly more resistant
EC50 (HTP cells): 1.5 µM
anti-tumor efficacy ([2]; doses approaching its maximum tolerable dose (MTD)): failed to produce similar anti-tumor efficacy
toxicity ([2]; i.p. 5 mg/kg three times at 2 day intervals): fatal
cell uptake (control 293 cells [3]): rapidly entered cells
LD50 (in vivo; ip): 17.2 µmol/kg
MTD (in vivo; ip): 9.8 µmol/kg
LD50 at 5 days (in vivo; ip, i.p. 5×): 3.4 µmol/kg
MTD at 5 days (in vivo; ip, i.p. 5×): 2.8 µmol/kg
LD50 (in vivo; iv): 25.8 µmol/kg
MTD (in vivo; iv): 18.2 µmol/kg
LD50 at 5 days (in vivo; iv, i.v. 5×): 5.1 µmol/kg
MTD at 5 days (in vivo; iv, i.v. 5×): 3.2 µmol/kg
Average weight loss (%) ([4]; Dose 1.72 μmol/kg): 24%
Death (%) ([4]; Dose 1.72 μmol/kg): 35%
Average weight loss (%) ([4]; Dose 5.4 μmol/kg): 28%
Death (%) ([4]; Dose 5.4 μmol/kg): 75%
decline of plasma concentration [5]: very rapidly declined
apoptosis of cardiac myocytes (TUNEL) (cardiac myocytes): marked apoptosis

COc1cccc2c1C(=O)c1c(O)c3c(c(O)c1C2=O)C[C@@](O)(C(=O)CO)C[C@@H]3O[C@H]1C[C@H](NC(=O)[C@H](CC(C)C)NC(=O)[C@H](CC(N)=O)NC(=O)[C@@H](NC(=O)CCNC(=O)CCC(=O)O)[C@@H](C)O)[C@H](O)[C@H](C)O1 [LEG-2, N-Succinyl-β-alanyl-L-threoinyl-L-Asparaginyl-L-Leucyl-Doxorubicin]
in vivo tumoricidal activity ([2]; mice bearing CT26 tumors): demonstrable in vivo tumoricidal efficacy
cleavage by legumain (legumain): are cleaved by legumain

COc1cccc2c1C(=O)c1c(O)c3c(c(O)c1C2=O)C[C@@](O)(C(=O)CO)C[C@@H]3O[C@H]1C[C@H](NC(=O)[C@H](CC(C)C)NC(=O)[C@H](CC(N)=O)NC(=O)[C@H](C)NC(=O)[C@H](C)NC(=O)CCC(=O)O)[C@H](O)[C@H](C)O1 [LEG-3] (Suc-AANL-{Doxorubicin(3'-N)})
cell uptake (control 293 cells [3]; cell cultures not expressing legumain): remained extracellular
cell uptake [6]: the end product Dox was found in cells
concentrations in cardiac, liver, kidney, spleen and lung tissues compared to Dox [7]: reduced
content in tumor tissues relative to Dox ([7]; CT26 tumors): more than 10 fold
LD50 (in vivo; ip): > 197 µmol/kg
MTD (in vivo; ip): > 197 µmol/kg
LD50 at 5 days (in vivo; ip, i.p. 5×): > 197 µmol/kg
MTD at 5 days (in vivo; ip, i.p. 5×): 98.7 µmol/kg
LD50 (in vivo; iv): > 197 µmol/kg
MTD (in vivo; iv): > 197 µmol/kg
LD50 at 5 days (in vivo; iv, i.v. 5×): 197 µmol/kg
MTD at 5 days (in vivo; iv, i.v. 5×): 74 µmol/kg
Average weight loss (%) ([4]; Dose 1.97 μmol/kg): 3%
Death (%) ([4]; Dose 1.97 μmol/kg): 0%
Average weight loss (%) ([4]; Dose 4.9 μmol/kg): 5%
Death (%) ([4]; Dose 4.9 μmol/kg): 0%
Average weight loss (%) ([4]; Dose 49.4 μmol/kg): 7%
Death (%) ([4]; Dose 49.4 μmol/kg): 0%
Average weight loss (%) ([4]; Dose 98.7 μmol/kg): 8%
Death (%) ([4]; Dose 98.7 μmol/kg): 10%
Average weight loss (%) ([4]; Dose 197.4 μmol/kg): 16%
Death (%) ([4]; Dose 197.4 μmol/kg): 50%
toxicity based on weight loss and mortality ([4]; xenograft bearing mice (FIG. 13E)): negligible
reduction of total WBC counts ([8]; 4.94 μmol/kg): no reductions
reduction of total WBC counts ([8]; 10-fold higher dose than 4.94 μmol/kg): only a slight reduction
histological evidence of cardiac toxicity (cardiac myocytes; 49.4 μmol/kg): no histological evidence of cardiac toxicity
apoptosis of cardiac myocytes (TUNEL) (cardiac myocytes): not observed
decline of plasma concentration [9]: much slower
